Data reported in patent US20190309094A1 (Y BIOLOGICS, published 2019).
Numbering of substitutions follows the chain as printed.

B1: ACE-05-VL2 (other)
heavy: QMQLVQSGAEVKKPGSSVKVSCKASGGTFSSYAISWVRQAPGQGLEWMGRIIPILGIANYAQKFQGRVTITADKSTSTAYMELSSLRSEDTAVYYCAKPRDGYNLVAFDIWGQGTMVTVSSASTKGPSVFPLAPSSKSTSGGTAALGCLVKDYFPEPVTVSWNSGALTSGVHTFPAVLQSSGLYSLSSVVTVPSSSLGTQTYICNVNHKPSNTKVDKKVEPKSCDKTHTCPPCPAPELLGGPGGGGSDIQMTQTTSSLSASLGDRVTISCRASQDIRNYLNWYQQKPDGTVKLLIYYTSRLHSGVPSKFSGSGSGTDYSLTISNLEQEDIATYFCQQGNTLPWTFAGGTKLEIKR
light: QLVLTQPPSVSGAPGQRVTISCTGSSSNIGAGYDVHWYQQLPGAAPKLLIYGDINRPSGVPDRFSGSKSGISASLAITGLQAEDEADYYCQSYDSSLSGGVFGGGTKLTVLRTVAAPSVFIFPPSDEQLKSGTASVVCLLNNFYPREAKVQWKVDNALQSGNSQESVTEQDSKDSTYSLSSTLTLSKADYEKHKVYACEVTHQGLSSPVTKSFNRGEC
B2: ACE-05 (bispecific antibody)
heavy 1: not shown
heavy 2: not shown
light: B1 light
notes: also called ALiCE; ACE-05-VH + ACE-05-VL + ACE-05-LC
B3: ACE-09 (bispecific antibody)
heavy 1: not shown
heavy 2: not shown
light: B1 light with T113S
notes: also called ACE-09-VH + ACE-09-VL + ACE-09-LC
B4: UCHT1 (antibody, V domains shown)
VH: EVQLQQSGPELVKPGPSMKISCKASGYSFTGYTMNWVKQSHGKNLEWMGLINPYKGVSTYNQKFKDKATLTVDKSSSTAYMELLSLTSEDSAVYYCARSGYYGDSDWYFDVWGQGTTLTVFS
VL: DIQMTQTTSSLSASLGDRVTISCRASQDIRNYLNWYQQKPDGTVKLLIYYTSRLHSGVPSKFSGSGSGTDYSLTISNLEQEDIATYFCQQGNTLPWTFAGGTKLEIKR
notes: A bought antibody (BioLegend); also called parental anti-CD3 antibody

How the values were obtained:
[1] = biological target: PD-L1 expressed on cells (UniProt Q9NZQ7 19-290, limits assumed); test: cell-based or functional assay
Sequence of PD-L1 expressed on cells (Q9NZQ7 19-290 limits assumed): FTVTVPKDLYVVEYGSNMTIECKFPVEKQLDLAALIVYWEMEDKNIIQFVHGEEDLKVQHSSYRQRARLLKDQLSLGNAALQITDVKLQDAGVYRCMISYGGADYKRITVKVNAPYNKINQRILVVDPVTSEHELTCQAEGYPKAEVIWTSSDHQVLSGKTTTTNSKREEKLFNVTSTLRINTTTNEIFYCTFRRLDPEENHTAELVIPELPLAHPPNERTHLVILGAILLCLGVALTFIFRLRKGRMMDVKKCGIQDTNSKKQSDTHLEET

[2] = biological target: CD3 (Sino Biological); test: ELISA on CD3, curve fit
Sequence of CD3 (Sino Biological) (P07766 23-126, chain 1 of 2): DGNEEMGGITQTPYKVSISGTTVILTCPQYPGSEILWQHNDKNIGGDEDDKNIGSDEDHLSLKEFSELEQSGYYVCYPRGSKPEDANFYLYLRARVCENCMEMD
Sequence of CD3 (Sino Biological) (P04234 22-105, chain 2 of 2, further chain): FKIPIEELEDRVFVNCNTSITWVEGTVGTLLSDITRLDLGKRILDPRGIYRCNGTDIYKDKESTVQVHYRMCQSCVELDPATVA
Method: Next day, plate was washed once with 200 μl of PBST, and then a surface blocking was performed at room temperature with 5% skim milk for 1-2 hours. […] Each well was then washed three times with 200 μl of PB ST to remove unbound samples. Horseradish peroxidase (HRP)-conjugated anti-human IgG (Fab specific) antibodies (Sigma, USA) were added to wells at a ratio of 1:1000 for a reaction at room temperature. After three times of washing with 200 ul of PBST, a color reaction of HRP was induced using TMB solution (GEhealthcare, USA) in a volume of 100 μl/well. The reaction was terminated by using a stop solution (2.5 M H₂SO₄, 100 μl/well). A spectrophotometer was used to measure the absorbance at a wavelength of A450 to calculate the binding affinity.

Binder | EC50 (read off the curve), PD-1/PD-L1 Blockade Bioassay [1] | Bmax [2]
B1 | ~0.09 µg/mL | 
B2 |  | 3.97 OD 450 nm
B3 |  | 4.04 OD 450 nm
B4 |  | 3.67 OD 450 nm
